Experimental data from patent publication US20190359687A1 (Bayer, published 2019).
One block for each binder: values may come before it.

What was measured:
[1] = molecular target: T1, dog red blood cells (dog); test: FACS, Dog RBC
T1 construct: also called dog RBC

[2] = molecular target: T2, human glycophorin A in the red blood cell membrane (human, UniProt P02724 20-150); test: FACS, Human RBC
T2 construct: whole, on cells; used for intact RBC, isolated RBC membranes and transfected cells; the assay field tells which; also called GPA; hGPA
T2 sequence (looked up): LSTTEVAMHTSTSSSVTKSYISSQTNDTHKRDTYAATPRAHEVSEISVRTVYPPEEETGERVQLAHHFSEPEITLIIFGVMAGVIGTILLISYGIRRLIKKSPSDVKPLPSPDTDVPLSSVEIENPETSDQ

[3] = molecular target: T3, Cynomolgus monkey glycophorin A on Cynomolgus monkey red blood cells (Cynomolgus monkey); test: FACS, Cyno #1 RBC
T3 construct: whole, on cells; also called Cyno RBC; Cyno GPA

[4] = molecular target: T3, Cynomolgus monkey glycophorin A on …; test: FACS, Cyno #2 RBC
[5] = molecular target: T3, Cynomolgus monkey glycophorin A on …; test: FACS, Cyno #3 RBC
[6] = molecular target: T4, purified human glycophorin A protein (Sigma, cat # G5017) (human, UniProt P02724 20-150); test: ELISA, hGPA
T4 construct: mature; also called Sigma hGPA; Sigma GPA
T4 sequence (looked up): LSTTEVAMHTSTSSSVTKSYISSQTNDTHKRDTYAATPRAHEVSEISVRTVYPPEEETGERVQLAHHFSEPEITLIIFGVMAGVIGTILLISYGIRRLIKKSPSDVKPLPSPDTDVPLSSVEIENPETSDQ
Description: (§1) Hybridomas were generated from the spleen cells of these mice and these hybriomas were screened first by fluorescence activated cell sorting (FACS) against isolated human and monkey (Cynomolgus monkey and Rhesus monkey) red blood cells (RBC) and then by ELISA against purified human glycophorin A protein (GPA). Isolated RBC were prepared from whole blood from normal human, cynomolgus monkey, and beagle dog, were anticoagulant with sodium heparin (Bioreclamation). 2-3 mL of whole blood was loaded gently on the top of 3 mL Ficoll Plus (Sigma Aldrich) then centrifuged at 500 g for 20 min at room temperature (RT). The RBC pellets were washed 3 times with 10 mL of PBS, and centrifuge 400 g for 10 min at RT. RBC pellets were re-suspended in PBS at the same total volume as the original blood volume to achieve the same RBC cell density as in whole blood and stored at 4° C. Purified human glycophorin A protein was obtained from Sigma Aldrich and coated on ELISA plates at 2 ug/ml. Binding of antibodies to human GPA was detected using appropriate secondary antibodies using methods well known in the art.

[7] = molecular target: T2, human glycophorin A in the red blood …; test: FACS, hu RBC
Description: as §1

[8] = molecular target: T1, dog red blood cells; test: FACS, dog RBC
[9] = molecular target: T3, Cynomolgus monkey glycophorin A on …; test: FACS, Cyno RBC
Description: as §1

[10] = molecular target: T5, Cynomolgus monkey glycophorin A on Cynomolgus monkey red blood cells (Cynomolgus monkey); test: partition to Cyno RBC, human HemA plasma, 1 min;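 further: FVIII fusion spiked at 1 IU/mL into RBC suspension at whole-blood density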
T5 construct: whole, on cells; also called Cyno GPA; Cyno RBC

[11] = molecular target: T5, Cynomolgus monkey glycophorin A on …; test: partition to Cyno RBC, human HemA plasma, 5 min;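 further: FVIII fusion spiked at 1 IU/mL into RBC suspension at whole-blood density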
Description: (§2) To evaluate partition to cynomolgus monkey or human red blood cells, whole blood was draw from Cynomolgus monkey or normal human volunteers in to anticoagulant with 4% sodium citrate (Sigma, St Louis, Mo.). The red blood cells were purified by layering the whole blood on to ficoll followed by low speed centrifugation. The supernatant containing plasma, platelets and white blood cells was discarded and the red blood cell pellet was resuspended in 10 pellet volumes of PBS (50 mM Phosphate buffer, pH7.4, 150 mM NaCl). The red blood cells were then pelleted by slow speed centrifugation and the red blood cells re-suspended in 10 volumes of PBS. This washing step was repeated 4 more times and the red blood cells finally resuspended in a volume of plasma from Hemophilia patients with less than 1% of normal levels of FVIII (GeorgeKing Bio-Medical, Overland Park, Kans.) to generate a total volume equal to the initial blood volume such that the RBC density was equal to that of normal whole blood. BDD and RBC targeted FVIII molecules were then spiked into RBC suspension in HemA plasma at 1 IU/mL, and incubated at room temperature for 2-3 hours with gentle rotation. […] An additional control was performed in which BDD or RBC targeted FVIII molecules were added at 11U/ml into the same human hemophilia A plasma and incubated for 5 minutes and 180 mins. These samples were used to determine the input FVIII activity in the presence of plasma which was used to calculate the percentage of the molecule that was bound to RBC. All plasma samples were then assayed together for FVIII activity using the Coatest SP assay (DiaPharma, Columbus, Ohio). The assay was performed following the manufacturer's instructions in a 96-well plate format. […] The plate was incubated at 37° C. for 10 minutes with shaking between each reagent addition.

[12] = molecular target: T5, Cynomolgus monkey glycophorin A on …; test: partition to Cyno RBC, human HemA plasma, 15 min;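 further: FVIII fusion spiked at 1 IU/mL into RBC suspension at whole-blood density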
Description: as §2

[13] = molecular target: T5, Cynomolgus monkey glycophorin A on …; test: partition to Cyno RBC, human HemA plasma, 30 min;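 further: FVIII fusion spiked at 1 IU/mL into RBC suspension at whole-blood density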
Description: as §2

[14] = molecular target: T5, Cynomolgus monkey glycophorin A on …; test: partition to Cyno RBC, human HemA plasma, 60 min;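 further: FVIII fusion spiked at 1 IU/mL into RBC suspension at whole-blood density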
[15] = molecular target: T5, Cynomolgus monkey glycophorin A on …; test: partition to Cyno RBC, human HemA plasma, 120 min;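 further: FVIII fusion spiked at 1 IU/mL into RBC suspension at whole-blood density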
[16] = molecular target: T6, human glycophorin A on human red blood cells (human, UniProt P02724 20-150); test: partition to human RBC, vWF deficient plasma, 1 min
T6 construct: whole, on cells; also called human GPA; huGPA
T6 sequence (looked up): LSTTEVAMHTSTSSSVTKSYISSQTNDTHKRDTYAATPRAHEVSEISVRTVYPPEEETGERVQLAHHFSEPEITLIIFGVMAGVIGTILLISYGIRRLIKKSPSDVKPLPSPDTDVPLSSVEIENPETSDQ

[17] = molecular target: T6, human glycophorin A on human red blood …; test: partition to human RBC, vWF deficient plasma, 5 min
[18] = molecular target: T6, human glycophorin A on human red blood …; test: partition to human RBC, vWF deficient plasma, 15 min
[19] = molecular target: T6, human glycophorin A on human red blood …; test: partition to human RBC, vWF deficient plasma, 30 min
[20] = molecular target: T6, human glycophorin A on human red blood …; test: partition to human RBC, vWF deficient plasma, 60 min
[21] = molecular target: T6, human glycophorin A on human red blood …; test: partition to human RBC, vWF deficient plasma, 120 min
[22] = molecular target: T7, glycophorin A peptide GP5 (human, biotin at the N-terminus); test: Octet, GP5 peptide on the probe, fusion protein in solution, 1:1 fit
T7 construct: Residues 42 to 61 of the human glycophorin A extracellular domain
T7 peptide: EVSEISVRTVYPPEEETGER

B1: 1E4 scFv-Fc (Fc fusion)
scFv: QVQLQQSGAELARPGASVKMSCKASGYTFTRYSMHWVKQRPGQGLEWIGYINPGTYYTNYNQKFKDRATLTADKSSSTAYMQLNSLTSEDSAVYYCQTGTRDYWGQGTTLTVSSGGGGSGGGGSGGGGSQIVLTQSPPIMSASPGEKVTITCSAASSVSYIYWFQQKPGTSPKLWIYSTSSLPSGVPTRFSGSGSGTSYSLTISRMEAEDAATYYCHQRSSYPFTFGSGTKLEIRGGGGAGGGGCKPCICTVPEVSSVFIFPPKPKDVLTITLTPKVTCVVVDISKDDPEVQFSWFVDDVEVHTAQTQPREEQFNSTFRSVSELPIMHQDWLNGKEFKCRVNSAAFPAPIEKTISKTKGRPKAPQVYTIPPPKEQMAKDKVSLTCMITDFFPEDITVEWQWNGQPAENYKNTQPIMDTDGSYFVYSKLNVQKSNWEAGNTFTCSVLHEGLHNHHTEKSLSHSPGK
notes: as m18
FACS signal [1]: 1 Flourescent units
FACS signal [2]: 1720 Flourescent units
FACS signal [3]: 1 Flourescent units
FACS signal [4]: 453 Flourescent units
FACS signal [5]: 487 Flourescent units

B2: 12C6A6/A5 (antibody, V domains shown)
VH: QVQLQQSGAELARPGASVKMSCKASGYTFTRYSMHWVKQRPGQGLEWIGYINPGTYSTNYNQKFKDRATLTADKSSSTAYMQLNSLTSEDSAVYYCQTGTRDYWGQGTTLTVSS
VL: QIVLTQSPPIMSASPGEKVTITCSAASSVSYIYWFQQKPGTSPKLWIYSTSSLPSGVPTRFSGSGSGTSYSLTISRMEAEDAATYYCHQRSSYPFTFGSGTKLEIR
notes: as m8
EC50 [6]: 266 pM
FACS signal [7]: 2840 relative flourescence units
FACS signal [8]: 0.96 relative flourescence units
FACS signal [9]: 7 relative flourescence units

B4: 10F1B10/F3 (antibody, V domains shown)
VH: QVQLLQSGAELARPGASVRISCKASGYTFTRYAMHWVKQRPGQGLEWIGYINPGTFSTNYNQKFKDRATLTADKSSSTAYMQLNSLTSEDSAVYYCQTGTRDYWGQGTTLTVSS
VL: QIVLTQSPPIMSASPGEKVTITCSAASSVSYIYWFQQKPGTSPKLWIYSTSSLPSGVPTRFSGSGSGTSYSLTISRMEAEDAATYYCHQRSSYPFTFGSGTKLEIR
notes: as m8
EC50 [6]: 192 pM
FACS signal [7]: 2860 relative flourescence units
FACS signal [8]: 1.04 relative flourescence units
FACS signal [9]: 280 relative flourescence units

B6: TPP-9049 FVIII-scFv fusion protein (other)
chain: ATRRYYLGAVELSWDYMQSDLGELPVDARFPPRVPKSFPFNTSVVYKKTLFVEFTDHLFNIAKPRPPWMGLLGPTIQAEVYDTVVITLKNMASHPVSLHAVGVSYWKASEGAEYDDQTSQREKEDDKVFPGGSHTYVWQVLKENGPMASDPLCLTYSYLSHVDLVKDLNSGLIGALLVCREGSLAKEKTQTLHKFILLFAVFDEGKSWHSETKNSLMQDRDAASARAWPKMHTVNGYVNRSLPGLIGCHRKSVYWHVIGMGTTPEVHSIFLEGHTFLVRNHRQASLEISPITFLTAQTLLMDLGQFLLFCHISSHQHDGMEAYVKVDSCPEEPQLRMKNNEEAEDYDDDLTDSEMDVVRFDDDNSPSFIQIRSVAKKHPKTWVHYIAAEEEDWDYAPLVLAPDDRSYKSQYLNNGPQRIGRKYKKVRFMAYTDETFKTREAIQHESGILGPLLYGEVGDTLLIIFKNQASRPYNIYPHGITDVRPLYSRRLPKGVKHLKDFPILPGEIFKYKWTVTVEDGPTKSDPRCLTRYYSSFVNMERDLASGLIGPLLICYKESVDQRGNQIMSDKRNVILFSVFDENRSWYLTENIQRFLPNPAGVQLEDPEFQASNIMHSINGYVFDSLQLSVCLHEVAYWYILSIGAQTDFLSVFFSGYTFKHKMVYEDTLTLFPFSGETVFMSMENPGLWILGCHNSDFRNRGMTALLKVSSCDKNTGDYYEDSYEDISAYLLSKNNAIEPRSFSQNPPVLKRHQREITRTTLQSDQEEIDYDDTISVEMKKEDFDIYDEDENQSPRSFQKKTRHYFIAAVERLWDYGMSSSPHVLRNRAQSGSVPQFKKVVFQEFTDGSFTQPLYRGELNEHLGLLGPYIRAEVEDNIMVTFRNQASRPYSFYSSLISYEEDQRQGAEPRKNFVKPNETKTYFWKVQHHMAPTKDEFDCKAWAYFSDVDLEKDVHSGLIGPLLVCHTNTLNPAHGRQVTVQEFALFFTIFDETKSWYFTENMERNCRAPCNIQMEDPTFKENYRFHAINGYIMDTLPGLVMAQDQRIRWYLLSMGSNENIHSIHFSGHVFTVRKKEEYKMALYNLYPGVFETVEMLPSKAGIWRVECLIGEHLHAGMSTLFLVYSNKCQTPLGMASGHIRDFQITASGQYGQWAPKLARLHYSGSINAWSTKEPFSWIKVDLLAPMIIHGIKTQGARQKFSSLYISQFIIMYSLDGKKWQTYRGNSTGTLMVFFGNVDSSGIKHNIFNPPIIARYIRLHPTHYSIRSTLRMELMGCDLNSCSMPLGMESKAISDAQITASSYFTNMFATWSPSKARLHLQGRSNAWRPQVNNPKEWLQVDFQKTMKVTGVTTQGVKSLLTSMYVKEFLISSSQDGHQWTLFFQNGKVKVFQGNQDSFTPVVNSLDPPLLTRYLRIHPQSWVHQIALRMEVLGCEAQDLYGGGSGGGGSGLVPRGSGGGSGGGGSGDIQLTQSPSFLSASVGDRVTITCRASSSVRYIYWFQQKPGKAPKLLIYATSFRQSGVPSRFSGSGSGTEYTLTISSLQPEDFATYYCHQRNSFPYTFGQGTKLEIKGGGGSGGGGSGGGGSGGGGSEVQLVQSGAEVKKPGASVKVSCKASGYTFTTYAIHWVRQAPGQGLEWMGYINPSSGYTRYNPKFKGRVTMTRDKSTSTAYMELRSLRSDDTAVYYCWTGTRDYWGQGTTVTVSS
notes: The entry is the mature protein; mostly a 2 chain molecule; also called BDD-C scFv; PPB 6733
% bound to Cyno RBC [10]: 28.1%
% bound to Cyno RBC [11]: 48.2%
% bound to Cyno RBC [12]: 62.1%
% bound to Cyno RBC [13]: 67.5%
% bound to Cyno RBC [14]: 72.2%
% bound to Cyno RBC [15]: 73.8%
percentage bound to human RBC [16]: 24.6%
percentage bound to human RBC [17]: 48.5%
percentage bound to human RBC [18]: 64.8%
percentage bound to human RBC [19]: 72.5%
percentage bound to human RBC [20]: 77.8%
percentage bound to human RBC [21]: 80.3%
Kd [22]: 2400 pM
koff [22]: 0.00305 s⁻¹
kon [22]: 1.27e+06 M⁻¹ s⁻¹

More lines, in order of falling EC50 [6], values ahead:

EC50 [6]: 403 pM
FACS signal [7]: 1.05 relative flourescence units
FACS signal [9]: 0.93 relative flourescence units
B7: 1H5B4/H12 (antibody, V domains shown)
VH: QVQLQQSGAELARPGASVKMSCKASGYTFTSYSIHWIKQRPGQSLEWIGYINPNSDYANYNQKFKDKATLTTDKSSTTAYMQLSSLTTDDSAVYYCQTGTRDYWGQGTTLTVSS
VL: DIVMTQSPSSLSVSAGEKVTMSCKSSQSLLNSGNQKNYLAWYQQKPGQPPKLLIYGASTRESGVPDRFTGSGSGTDFTLTISSVQAEDLAVYYCQNDHSYPYTFGGGTKLEIK
notes: as m8

EC50 [6]: 221 pM
FACS signal [7]: 2560 relative flourescence units
FACS signal [8]: 1 relative flourescence units
FACS signal [9]: 272 relative flourescence units
B5: 1E4A2/F8 (antibody, V domains shown)
VH: QVQLQQSGAELARPGASVKMSCKASGYTFTRYSMHWVKQRPGQGLEWIGYINPGTYYTNYNQKFKDRATLTADKSSSTAYMQLNSLTSEDSAVYYCQTGTRDYWGQGTTLTVSS
VL: QIVLTQSPPIMSASPGEKVTITCSAASSVSYIYWFQQKPGTSPKLWIYSTSSLPSGVPTRFSGSGSGTSYSLTISRMEAEDAATYYCHQRSSYPFTFGSGTKLEIR
notes: as m8

EC50 [6]: 159 pM
FACS signal [7]: 2860 relative flourescence units
FACS signal [8]: 1.05 relative flourescence units
FACS signal [9]: 284 relative flourescence units
B3: 8F9E9/F11 (antibody, V domains shown)
VH: QVQLQQSGAELARPGASVKMSCKASGYTFTSYSIHWIKQRPGQSLEWIGYINPNSDYANYNQKFKDKATLTTDKSSTTAYMQLSSLTTDDSAVYYCQTGTRDYWGQGTTLTVSS
VL: HIVLTQSPAIMSASPGEKVTIICSARSSVSYMYWFQQKPGTSPKLWIYATSSLPSGVPARFSGSGSGTSYSLTISRMEAEDAATYYCHQRSSYPYTFGSGTKLEIK
notes: as m8
